From PMC6220335, “Molecular structure of promoter-bound yeast TFIID” (Nature Communications, 2018)

B1: Taf12, subunit of Komagataella phaffii TFIID (natural protein, UniProt F2QSK7 1-609, looked up)
chain: MNQPPNQPQDNDSQVSSSGMQGGNSMNYSSSAPVNGAGQGPQPQQNSQGQNGKKPVGMQQAQIQLLARRYQLEMQKAHQLGPQTPQGAEHLQTATKIKHVLLSYQQQRQRQQGQVQGQGLSQPQGQNQAQGRVQQQTQGLSPDPGSHQGSPQFQQPHQVMMGSAQTAGTSIANPQAQSNISSQVSQMAAAKVNSASPPIPPKTVGTPTGTPVGTQPRGQVTIQQFQQVKSILEEFEKKLRTIEAAKRDQNLPEETLQKLLRQEAILKQRYAQTKATAYQMSQHLQRQQQALRAASAESAEVYVTGSASSPNMNVYNQQILTQQPQQQLQQQQLHQPQPQQPQPARQSPHLLIHQQQQQQQQQQQQQQQQQQHPVTHRPSNVSQTMPQPSQPLQSSTPSSAVGRNQSPGATPVTSVNAAAKPSPGTSSTSTLINQHILKPAPPPTEIPARLQVKPPQPAAMKIPNRPTLLGGSAISQPSLTTPVSIRPPPLEMEGDHVLQKRKLKELLRNVGADEGDGETVIDGDVEELLLDLADEFVTSVTSFACRLAKHRKVDNIDMRDVQLHLERNWNIRVPGYASDEIRSVRKFQPTAGYNQKVQGVAISKSVNKN
notes: Taf12, TFIID subunit of the yeast Komagataella phaffii (formerly Pichia pastoris); histone-fold domain modelled in the cryo-EM map; source: endogenous, K. phaffii nuclear extract; co-purified in TFIID by SBP-tagged Taf2 (streptavidin beads, sucrose gradient)
B2: Taf5, subunit of Komagataella phaffii TFIID (natural protein, UniProt F2QWD3 1-722, looked up)
chain: MKQEPGDSSDKSAPSGSITPQPKPPQQANVSNQQPQKPQQFSAADLNRIVLEYLNKKGYHKTESMLRMESSHIPAPPTNIPTPQTTNISRPTAPGRAPEYSDDPATIKRGYSILKSWCESSLDFYRPELEKFLYPVFVHCYLDLIARGYPSHAREFYDKFSKDHSVLHEYEISKLGGISLKEHLQENDVAKIFRSHKFKVLIGRTTFNLLLYFLNENDAVGGGVVLRLINQYIEPVITTEAIAVEREGELNLSEGIVELHTLNNTSIGGEQREISSVDAFNKKPVKLGKLQVDPEYSKELEAELKLKDEHEQAAQKKVSTTLLEEYRENFKVDPSDENNPSKDTLPLPLKSAQDLRNDIAMIQDSRAKIKLSAAQASLPSVCMYTFHNTNNDLTCLKFNDDSTMVASGFQDSFIKLWSIDGSPLRSLLKNDPYNQQNNDGVAVKGSRRLVGHSGAVYGVDFSPDNRYLISCSEDKTVRLWSLDTYTCLVSYKGHSSSVWDVKFSPMGHYFATASHDQTARLWSCDHIYPLRIFAGHLNDVDCVEFHPNSTYLFTGSSDKTARMWDIARGECVRVFMGHSGAINCLAVSPDGRWLASAGEDSVVCLWDISTGRRIKAMRGHGRSSIYSLAFSREGTVLVSTGADNSVRVWDVKKNTNSPSAQPEPINDVTAQGIQKKTEDLRRRKEIVATNDHMSVYFTKKTPVYTVHFTRRNLCLAGGVFGG
notes: Taf5, TFIID subunit of the yeast Komagataella phaffii (formerly Pichia pastoris); WD40 repeat and NTD (residues 99–243) modelled in the cryo-EM map; two copies in holo-TFIID; source: endogenous, K. phaffii nuclear extract; co-purified in TFIID by SBP-tagged Taf2 (streptavidin beads, sucrose gradient)

What was measured:
[1] = target: B1; assay: cross-linking; 50 µg purified TFIID, 3 mM BS3, 2 h at 25 °C; trypsin, SCX fractionation, Orbitrap Fusion MS; pLink and Nexus, 5% FDR; details: both partners purified
[2] = target: B2; assay: as above; details: both partners purified
[3] = target: T1, Taf2 with C-terminal streptavidin-binding peptide tag, subunit of Komagataella phaffii TFIID (Komagataella phaffii, UniProt F2QRH9 1-1571); assay: affinity purification with mass spectrometry; TFIID purified from K. phaffii nuclear extract by the SBP tag at the C-terminus of Taf2 (streptavidin beads, 250 mM potassium acetate, elution with 10 mM biotin, 10–30% sucrose gradient); SDS-PAGE and mass spectrometry of the purified complex; details: partners not purified
T1 construct: Taf2, TFIID subunit of the yeast Komagataella phaffii (formerly Pichia pastoris); residues 36 to 1194 modelled in the cryo-EM map; bait of the purification; also called SBP-tagged Taf2; source: K. phaffii strain with SBP-tagged Taf2, nuclear extract; purified (streptavidin beads, biotin elution, sucrose gradient)

[4] = target: T1, Taf2 with C-terminal …; assay: cross-linking; 50 µg purified TFIID, 3 mM BS3, 2 h at 25 °C; trypsin, SCX fractionation, Orbitrap Fusion MS; pLink and Nexus, 5% FDR; details: both partners purified
[5] = target: the molecule itself; assay: cryo-EM structure; purified TFIID (0.4 µM) with two-fold excess of TFIIA and 2.5–3-fold excess of pGAP promoter DNA, cross-linked with 0.1% glutaraldehyde; focused refinement of the lobes (Taf2 lobe 4.5 Å, Twin lobe 4.8 Å); homology models docked

binding result [2]	Binder	stoichiometry N [5]	further results
binds	Taf4, subunit of Komagataella phaffii TFIID (natural protein, UniProt F2QWX2 1-411, looked up, Taf4, TFIID subunit of the yeast Komagataella phaffii (formerly Pichia pastoris); histone-fold domain modelled in the cryo-EM map; source: endogenous, K. phaffii nuclear extract; co-purified in TFIID by SBP-tagged Taf2 (streptavidin beads, sucrose gradient)) MSSTPDGSTPVDSGKRTSDQIDVGEYKRVKVERGNRSETVDSGLIDMSNSVGASLDIPTPDQLNPTNTGVQTPSLHQPGESISAHSLSLPGETSVGGSTGISRENTPQVRPDVSVSQSSSQLHQRNESFPGLSVSKSTTSLNKDTMFDNRKRLLGNNGANPNGQKSSDPEKLSDALTAAGVDLKEEESLLSQSTVIQQSRRQLSTLSSFLHPVHLATFMRRVMENNGLRNYVDHDTELLSYMSSACEGFMAGILTDSVILANHRKRPIKSKLKHSTTPRSDVSKVLRDIATKQKEREEQRVQKRVTLDIEGQEDDGKSKQDNEEVLHRAANATAMMMTSKSKKKKYSWMNADSGAQGGKTNSVLARGDSGIRYRDAREEPGLVLRDLLGALEGRRMCVANTVVKGYARMND		binding result [1]: binds
	Taf1 (TBP-associated factor 1), subunit of Komagataella phaffii TFIID (natural protein, UniProt F2QMX2 1-1010, looked up, Taf1, TFIID subunit of the yeast Komagataella phaffii (formerly Pichia pastoris); native subunit of the purified complex; also called KpTaf1; source: endogenous, K. phaffii nuclear extract; co-purified in TFIID by SBP-tagged Taf2 (streptavidin beads, sucrose gradient)) MDVDFDNALNGQVGGFDQFFDGTTKHADNAIDFSDEEELADEEVGDAPQRRTDVDDEHKPPEGTYEMNLSGSEKEDLLFKNLEREASEGTELPLPTIGGLKVPNFDNNIGLNETISERNECNQISNSHFVKHLEKTMIRTQMLKYYYPSFQKSKPISFSSLFPPPLASFQLYDGRDCTPLLPLKALQEVDPDEKKIFKSSFSAHQSKGDKRSQSVKHIELMELESNNTQIPPRKQKETLKHLDRNIVLSTLSWDDTELLSDKLEERHNRNRTKPNFQQMQYDDWDVDTDMILEGTLDTSRLNLKLDMNDPHLLFLNQKHKPSPAGKMNARFPMNSKSFEMKFNISNDMQYQMLKDNYQSKIRSTIGNLSIDHSIPATILQTPFYKVKLSKQELRRFHRPVFNSRPNSTILFSKIKTRKKKKDRGKETKELFKKSVDLTLGDSASFFLLEYSEEQPVALSNFGMGSKLINYYRKLNDDDNSRPKLPVGETHVLGVQDRSPFWNFGFVEPGNLVPTFYNNMVRAPIFRHEPEETDFLLIRSSGGGISPRYFLRSLDHVFTVGQTFPVVDVPGPHSRKVTSTSKNRLKMIVYRVLNKNERHRLVVKDISIHFPDQNDMQNRQRLKEFMEYQKNGEDHGFWKIKGNEILPGFKEIQQMIQPEDIALLEAMQFGQLNLEDYDSLREETLIGQTTATTEEALQVQMAPWSTTKNFIQATQGKAMLQVHGIGDPSKKGEAISFLRISMKGGFKSSMEDIVEKAEQMDNKKSQGHSYNVAVQQKMYDEEISRVWYAQQRALSKTSDMMERELGPTEAPTASSVYDDQNQITEMAKTLEEFVLSPLQTTVSSVKPASIKEKKHMKITRMVRDQNGILQRRTQLVTDQKVIAAYIQRKQEQEKAEIDAEKISFTNDEEQNRRAKKILEEELERLEKSKERRIARKKLKEGLPVVSSLSNTDSDARLSGKGIGKGKSTSRRCATCGALGHIRTNKACPMYYSAMNKSNPNMSDLPVYDIQY		binding result [3]: binds
binds	B1		
	Taf8, subunit of Komagataella phaffii TFIID (natural protein, UniProt F2QT15 1-517, looked up, Taf8, TFIID subunit of the yeast Komagataella phaffii (formerly Pichia pastoris); putative helices placed in the cryo-EM map; also called KpTaf8; source: endogenous, K. phaffii nuclear extract; co-purified in TFIID by SBP-tagged Taf2 (streptavidin beads, sucrose gradient)) MADKSDDNQSLVSVSSASSGKENPNSVGQRSMNPTLSHEEQHDQEVQERYNTGKDLNITSQPECVPAMEVALKASVLLILSSLGVQASSLSIDHLTYITTKYIDRLVSELHRSTEIQRRRTIAKRDVQLVVDRGILDLEDVTLEYERLKLTRKRVKPSIEKLSKYASELKESASSVQVSENDKDAFFFFDIAEKISEFMPLRMKRKNYIPKWMPVLPPEHTYVATPQFTEVISDPKELREQLTAESRLGEKALQHLIGTKIVEDKKEDVGNENDNDIDKEIHHGEIDVESDHNLEKGPNGETNGVQSQPPKSMVSSKRFDIVAHAKHRLSVLEKRKRHQEQLLENRRKEIDGLVGQYLGYYATKKIEPPVSDIIVNIMNTEYYHVSREISKSEHRKQKIQESQQLKRRKLEDELQQELEHQTEDIDFEFNFDEDDVDMNKNLNENLNENENDDEQVLIEEDTSFDITNGDIEKTNQETPFTNGSSKQWDSNNAILDSTNSEPEPEPPIADLFNVDSS		binding result [4]: binds
	B2	2	
	Taf6, subunit of Komagataella phaffii TFIID (natural protein, UniProt F2QMA7 1-485, looked up, Taf6, TFIID subunit of the yeast Komagataella phaffii (formerly Pichia pastoris); HEAT repeats (residues 213–486) and histone-fold domain modelled in the cryo-EM map; two copies in holo-TFIID; source: endogenous, K. phaffii nuclear extract; co-purified in TFIID by SBP-tagged Taf2 (streptavidin beads, sucrose gradient)) MSKNSQRSSIPTSHTLWSPSDTVKDAAESLGIFNLNEEAAKNLAMDIEYRIHEILDQASKFMRHGKRRTLHTSDIDRALKVLNLEPLYGYDVSRPLVFKEALVGAGQNLYYVDDDEVDFEKLINEPLPKVPRFSTFTAHWLAIEGVQPAIPQNPSPNDIKNILPINRGSMENMFSLINDEVKEDTNEEFTSTGPSVSSNISNQKQGLEVKPLVKHVLSRELQLYFDKIVEVLLNQEETKEAELLRNSALQSVRADPGLHQLVPYFIQFISETITKNLKNISLLSTMLELIYSLLMNESLFLEPYVHAIIPCILTLLLAKKIGNVDDELQKQQQLALRELSASLLERVIEDFGSSYSTLKPRITRTLLRAFVSVNNTTPGTQYGALLGLRGLGSEVIRIVVLGNVINWSSTFLEKLQQEDQVFLIDTLIETLRVLTKEGKLVKDMKTENGIDNERLKQRVGDLIADRIQACDDAQDIYWGIFFGEV	2	
